In the Immune Epitope Database (IEDB):

Assays:
HLA-B*08:01 [1] = assay: IEDB peptide-MHC binding, purified MHC/direct/fluorescence; filed as Kd, often an IC50 or EC50 that approximates it; ≥ and ≤ were set here for values at or beyond the usual limits of such assays
HLA-A*01:01 = assay: as above
HLA-B*35:01 [2] = assay: as above
HLA-A*03:01 = assay: as above
HLA-A*26:01 [3] = assay: as above
HLA-A*69:01 [4] = assay: as above
HLA-B*15:01 = assay: as above
HLA-B*40:01 = assay: as above
HLA-B*58:01 [5] = assay: as above
HLA-B*44:02 = assay: as above
HLA-B*15:02 = assay: as above
HLA-B*46:01 = assay: as above
HLA-A*31:01 = assay: as above
HLA-A*11:01 = assay: as above
HLA-B*07:02 = assay: as above
HLA-A*02:01 [6] = assay: as above
HLA-B*48:01 = assay: IEDB peptide-MHC binding, purified MHC/competitive/fluorescence; filed as Kd, often an IC50 or EC50 that approximates it; ≥ and ≤ were set here for values at or beyond the usual limits of such assays
HLA-B*27:03 = assay: as above; settings: source organism: Zaire ebolavirus
HLA-B*39:01 = assay: as above; settings: source organism: Zaire ebolavirus
HLA-B*35:01 [7] = assay: as above
HLA-A*26:01 [8] = assay: as above; settings: source organism: Zaire ebolavirus
HLA-A*69:01 [9] = assay: as above; settings: source organism: Zaire ebolavirus
HLA-A*02:01 [10] = assay: as above; settings: source organism: Zaire ebolavirus
HLA-A*68:02 = assay: IEDB peptide-MHC binding, purified MHC/direct/fluorescence; filed as Kd, often an IC50 or EC50 that approximates it; ≥ and ≤ were set here for values at or beyond the usual limits of such assays; settings: source organism: Zaire ebolavirus
HLA-A*02:19 = assay: as above; settings: source organism: Zaire ebolavirus
HLA-A*02:16 = assay: as above; settings: source organism: Zaire ebolavirus
HLA-A*02:12 = assay: as above; settings: source organism: Zaire ebolavirus
HLA-C*14:02 [11] = assay: as above
HLA-A*02:03 = assay: as above; settings: source organism: Zaire ebolavirus
HLA-B*27:05 = assay: as above
HLA-B*08:01 [12] = assay: IEDB peptide-MHC binding, purified MHC/competitive/fluorescence; filed as Kd, often an IC50 or EC50 that approximates it; ≥ and ≤ were set here for values at or beyond the usual limits of such assays; settings: source organism: Salmonella enterica subsp. enterica serovar Typhi
HLA-B*51:01 = assay: as above; settings: source organism: Salmonella enterica subsp. enterica serovar Typhi
HLA-B*45:06 = assay: as above
HLA-B*15:42 = assay: as above
HLA-A*68:23 = assay: as above
HLA-B*83:01 = assay: as above
HLA-C*05:01 = assay: IEDB peptide-MHC binding, purified MHC/direct/fluorescence; filed as Kd, often an IC50 or EC50 that approximates it; ≥ and ≤ were set here for values at or beyond the usual limits of such assays; settings: source organism: Salmonella enterica subsp. enterica serovar Typhi str. CT18
HLA-A*32:15 = assay: IEDB peptide-MHC binding, purified MHC/competitive/fluorescence; filed as Kd, often an IC50 or EC50 that approximates it; ≥ and ≤ were set here for values at or beyond the usual limits of such assays
HLA-B*40:13 = assay: as above
HLA-A*32:07 = assay: as above
HLA-C*15:02 = assay: IEDB peptide-MHC binding, purified MHC/direct/fluorescence; filed as Kd, often an IC50 or EC50 that approximates it; ≥ and ≤ were set here for values at or beyond the usual limits of such assays; settings: source organism: Entamoeba histolytica HM-1:IMSS
HLA-C*06:02 = assay: as above; settings: source organism: Entamoeba histolytica HM-1:IMSS
HLA-B*58:01 [13] = assay: IEDB peptide-MHC binding, purified MHC/competitive/fluorescence; filed as Kd, often an IC50 or EC50 that approximates it; ≥ and ≤ were set here for values at or beyond the usual limits of such assays; settings: source organism: Yersinia pestis Nepal516
HLA-C*14:02 [14] = assay: as above; settings: source organism: Yersinia pestis Nepal516
[15] = source organism: Yersinia pestis Antiqua
[16] = source organism: Yersinia pestis
[17] = source organism: Entamoeba histolytica HM-1:IMSS
[18] = source organism: Zaire ebolavirus
[19] = source organism: Vibrio vulnificus
[20] = source organism: Salmonella enterica subsp. enterica serovar Typhi
[21] = source organism: Escherichia coli O157:H7
[22] = source organism: Escherichia coli
[23] = source organism: Yersinia pestis Nepal516

Question: For FQLYSDLAH, which Kd (HLA-B*08:01 [1]; [15]) is on record?
Answer: ≥ 20 µM

Question: And the Kd (HLA-A*01:01; [15])?
Answer: ≥ 20 µM

Question: And the Kd (HLA-B*35:01 [2]; [16])?
Answer: 0.861 µM

Question: What about the Kd (HLA-A*03:01; [15]) of the same sequence?
Answer: ≥ 20 µM

Question: And the Kd (HLA-A*26:01 [3]; [15])?
Answer: ≥ 20 µM

Question: And the Kd (HLA-A*69:01 [4]; [15])?
Answer: ≥ 20 µM

Question: What about the Kd (HLA-B*15:01; [16]) of the same sequence?
Answer: 0.0682 µM

Question: What about the Kd (HLA-B*40:01; [15]) of the same sequence?
Answer: ≥ 20 µM

Question: And the Kd (HLA-B*58:01 [5]; [15])?
Answer: ≥ 20 µM

Question: What about the Kd (HLA-B*44:02; [15]) of the same sequence?
Answer: ≥ 20 µM

Question: And the Kd (HLA-B*15:02; [15])?
Answer: 0.0259 µM

Question: And the Kd (HLA-B*46:01; [15])?
Answer: 2.27 µM

Question: And the Kd (HLA-A*31:01; [15])?
Answer: ≥ 20 µM

Question: And the Kd (HLA-A*11:01; [15])?
Answer: ≥ 20 µM

Question: What about the Kd (HLA-B*07:02; [15]) of the same sequence?
Answer: ≥ 20 µM

Question: And the Kd (HLA-A*02:01 [6]; [16])?
Answer: 1.91 µM

Question: With KEFNGPAML as the sequence, how does the Kd (HLA-B*48:01; [17]) read?
Answer: 0.439 µM

Question: For KVYWAGIEF, which Kd (HLA-B*27:03) is on record?
Answer: ≥ 20 µM

Question: And the Kd (HLA-B*39:01)?
Answer: ≥ 20 µM

Question: And the Kd (HLA-B*35:01 [7]; [18])?
Answer: 0.114 µM

Question: And the Kd (HLA-A*26:01 [8])?
Answer: ≥ 20 µM

Question: And the Kd (HLA-A*69:01 [9])?
Answer: ≥ 20 µM

Question: And the Kd (HLA-A*02:01 [10])?
Answer: ≥ 20 µM

Question: What about the Kd (HLA-A*68:02) of the same sequence?
Answer: ≥ 20 µM

Question: And the Kd (HLA-A*02:19)?
Answer: ≥ 20 µM

Question: And the Kd (HLA-B*15:01; source organism: Ebola virus - Gabon (1994-1997))?
Answer: 0.133 µM

Question: And the Kd (HLA-A*02:16)?
Answer: ≥ 20 µM

Question: What about the Kd (HLA-A*02:12) of the same sequence?
Answer: ≥ 20 µM

Question: And the Kd (HLA-C*14:02 [11]; [18])?
Answer: 0.018 µM

Question: And the Kd (HLA-A*02:03)?
Answer: ≥ 20 µM

Question: LLTQSNAGF was tested. Which Kd (HLA-B*08:01 [1]; [19]) did it give?
Answer: ≥ 20 µM

Question: And the Kd (HLA-A*01:01; [19])?
Answer: ≥ 20 µM

Question: What about the Kd (HLA-B*35:01 [2]; [19]) of the same sequence?
Answer: 0.345 µM

Question: What about the Kd (HLA-A*03:01; [19]) of the same sequence?
Answer: ≥ 20 µM

Question: And the Kd (HLA-A*26:01 [3]; [19])?
Answer: ≥ 20 µM

Question: And the Kd (HLA-A*69:01 [4]; [19])?
Answer: ≥ 20 µM

Question: And the Kd (HLA-B*15:01; [19])?
Answer: 0.146 µM

Question: What about the Kd (HLA-B*27:05; [19]) of the same sequence?
Answer: ≥ 20 µM

Question: What about the Kd (HLA-B*40:01; [19]) of the same sequence?
Answer: ≥ 20 µM

Question: And the Kd (HLA-B*44:02; [19])?
Answer: ≥ 20 µM

Question: What about the Kd (HLA-B*15:02; source organism: Vibrio vulnificus CMCP6) of the same sequence?
Answer: 0.049 µM

Question: What about the Kd (HLA-B*46:01; [19]) of the same sequence?
Answer: ≥ 20 µM

Question: What about the Kd (HLA-A*31:01; [19]) of the same sequence?
Answer: ≥ 20 µM

Question: What about the Kd (HLA-A*11:01; [19]) of the same sequence?
Answer: ≥ 20 µM

Question: What about the Kd (HLA-B*07:02; [19]) of the same sequence?
Answer: ≥ 20 µM

Question: Which Kd (HLA-B*08:01 [12]) does the source give for MPFIATPPV here?
Answer: 1.44 µM

Question: And the Kd (HLA-B*51:01)?
Answer: 0.567 µM

Question: And the Kd (HLA-B*35:01 [7]; [20])?
Answer: ≤ 0.0001 µM

Question: And the Kd (HLA-B*45:06; [20])?
Answer: ≥ 5 µM

Question: And the Kd (HLA-B*15:42; [20])?
Answer: ≥ 5 µM

Question: What about the Kd (HLA-A*68:23; [20]) of the same sequence?
Answer: 0.0021 µM

Question: What about the Kd (HLA-B*83:01; [20]) of the same sequence?
Answer: 0.0626 µM

Question: And the Kd (HLA-C*05:01)?
Answer: ≥ 20 µM

Question: How did the Kd (HLA-B*48:01; source organism: Shigella flexneri 5 str. 8401) turn out when RQQAIVDLL was run?
Answer: 0.153 µM

Question: With SMFERDFHF as the sequence, how does the Kd (HLA-A*32:15; [17]) read?
Answer: 0.0316 µM

Question: And the Kd (HLA-B*40:13; [17])?
Answer: 0.0028 µM

Question: And the Kd (HLA-B*45:06; [17])?
Answer: ≥ 5 µM

Question: And the Kd (HLA-A*32:07; [17])?
Answer: 0.0093 µM

Question: And the Kd (HLA-B*15:42; [17])?
Answer: ≥ 5 µM

Question: What about the Kd (HLA-B*83:01; [17]) of the same sequence?
Answer: ≥ 5 µM

Question: What about the Kd (HLA-C*15:02) of the same sequence?
Answer: ≥ 20 µM

Question: And the Kd (HLA-C*06:02)?
Answer: 1.72 µM

Question: And the Kd (HLA-A*69:01 [4]; [17])?
Answer: ≥ 5 µM

Question: What about the Kd (HLA-C*14:02 [11]; [17]) of the same sequence?
Answer: 3.27 µM

Question: What about the Kd (HLA-A*02:01 [6]; [17]) of the same sequence?
Answer: 0.004 µM

Question: Which Kd (HLA-B*08:01 [1]; [21]) does the source give for YLGTPNNTY here?
Answer: ≥ 20 µM

Question: And the Kd (HLA-A*01:01; [22])?
Answer: 0.284 µM

Question: And the Kd (HLA-B*35:01 [2]; [22])?
Answer: 0.325 µM

Question: What about the Kd (HLA-A*03:01; [21]) of the same sequence?
Answer: ≥ 20 µM

Question: What about the Kd (HLA-A*26:01 [3]; [21]) of the same sequence?
Answer: ≥ 20 µM

Question: And the Kd (HLA-A*69:01 [4]; [21])?
Answer: ≥ 20 µM

Question: What about the Kd (HLA-B*15:01; [22]) of the same sequence?
Answer: 0.137 µM

Question: What about the Kd (HLA-B*27:05; [21]) of the same sequence?
Answer: ≥ 20 µM

Question: And the Kd (HLA-B*40:01; [21])?
Answer: ≥ 20 µM

Question: And the Kd (HLA-B*58:01 [5]; [21])?
Answer: ≥ 20 µM

Question: And the Kd (HLA-B*44:02; [21])?
Answer: ≥ 20 µM

Question: What about the Kd (HLA-B*15:02; [21]) of the same sequence?
Answer: 0.0094 µM

Question: And the Kd (HLA-B*46:01; [21])?
Answer: ≥ 20 µM

Question: And the Kd (HLA-A*31:01; [21])?
Answer: ≥ 20 µM

Question: What about the Kd (HLA-A*11:01; [21]) of the same sequence?
Answer: ≥ 20 µM

Question: What about the Kd (HLA-B*07:02; [21]) of the same sequence?
Answer: ≥ 20 µM

Question: And the Kd (HLA-A*02:01 [6]; [21])?
Answer: ≥ 20 µM

Question: Which Kd (HLA-A*32:15; [23]) does the source give for YSLMSRYQF here?
Answer: 0.0582 µM

Question: And the Kd (HLA-B*40:13; [23])?
Answer: 0.0132 µM

Question: And the Kd (HLA-B*58:01 [13])?
Answer: 0.0162 µM

Question: And the Kd (HLA-B*45:06; [23])?
Answer: ≥ 5 µM

Question: What about the Kd (HLA-A*32:07; [23]) of the same sequence?
Answer: 0.0258 µM

Question: And the Kd (HLA-B*15:42; [23])?
Answer: ≥ 5 µM

Question: And the Kd (HLA-C*14:02 [14])?
Answer: 0.043 µM

Question: What about the Kd (HLA-A*68:23; [23]) of the same sequence?
Answer: 0.0295 µM

Question: And the Kd (HLA-B*83:01; [23])?
Answer: ≥ 5 µM
